Data on 9 molecules can be found in patent US20060281072A1 (CRUCELL HOLLAND B V, published 2006).

In assay [1] the target is T1, human OX40-receptor (human, UniProt P43489 29-277).
T1 construct: whole, on cells; also called CD134; ACT-4
T1 sequence (looked up): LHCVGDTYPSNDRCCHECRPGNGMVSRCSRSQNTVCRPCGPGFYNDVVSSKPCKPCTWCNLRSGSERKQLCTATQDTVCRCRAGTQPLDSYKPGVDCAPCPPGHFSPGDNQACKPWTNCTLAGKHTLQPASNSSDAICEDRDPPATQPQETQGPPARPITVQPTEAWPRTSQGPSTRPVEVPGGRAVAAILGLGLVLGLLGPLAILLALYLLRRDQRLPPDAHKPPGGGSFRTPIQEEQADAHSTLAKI
Nature of the assay: flow cytometry on OX40-receptor transfected (filled) and mock-transfected (open) PER.C6 cells, anti-human IgG PE, IgG1 at 20 µg/ml. How it is done:
The anti-OX40 receptor IgG1 antibodies were validated for their ability to bind to PER.C6™ cells transfected with human OX40-receptor. To this purpose mock- and human OX40-receptor-transfected cells were stained with the IgG1 antibodies at a concentration of 20 μg/ml at 4° C. Binding of the antibodies called 008, 011, 021 and 023 was visualized using biotinylated goat-anti-human IgG (Fc specific, Caltag) followed by streptavidin-phyco-erythrin (Caltag). The stained cells were analyzed by flow cytometry.

In assay [2] the target is T1, human OX40-receptor. Nature of the assay: flow cytometry on tonsil mononuclear cells, M13 anti-phage PE against CD4 FITC.
For assay [3], the target named is T1, human OX40-receptor. Briefly: flow cytometry, mix of OX40-receptor transfected (green, PKH67) and control transfected PER.C6 cells, M13 anti-phage PE. How it is done: In another assay the phage antibodies were analyzed for their ability to bind PER.C6™ cells that recombinantly express human OX40-receptor. To this purpose PER.C6™ cells were transfected with a plasmid carrying a cDNA sequence encoding human OX40-receptor or with the empty vector and stable transfectants were selected using standard techniques known to a person skilled in the art (Coligan et al., 2001). For flow cytometry analysis, phage antibodies were first blocked in an equal volume of 4% MPBS for 15 minutes at 4° C. prior to the staining of the OX40-receptor- and control transfected PER.C6™ cells. The blocked phages were added to a mixture of unlabelled control transfected PER.C6™ cells and OX40-receptor transfected PER.C6™ cells that were labelled green using a lipophylic dye (PKH67, Sigma). The binding of the phage antibodies to the cells was visualized using a biotinylated anti-M13 antibody (Santa Cruz Biotechnology) followed by streptavidin-phycoerythrin (Caltag).

Assay [4] deals with T2, human OX40-Ig fusion protein (human, UniProt P43489 29-214).
T2 construct: extracellular domain; Bought (Alexis Biochemicals); not shown: CH2 and CH3 domains of human IgG1
T2 sequence (looked up): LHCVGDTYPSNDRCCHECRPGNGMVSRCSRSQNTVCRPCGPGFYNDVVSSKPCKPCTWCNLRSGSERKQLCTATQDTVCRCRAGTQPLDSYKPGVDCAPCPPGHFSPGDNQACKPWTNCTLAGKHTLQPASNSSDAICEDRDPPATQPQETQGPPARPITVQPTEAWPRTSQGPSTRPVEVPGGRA
Nature of the assay: phage ELISA on coated human OX40-Ig, anti-M13 peroxidase, absorbance at 492 nm. How it is done: Selected phage antibodies that were obtained in the screen described above, were validated in ELISA for specificity. For this purpose, human OX40-Ig was coated to Maxisorp™ ELISA plates. After coating, the plates were blocked in 2% MPBS. The selected phage antibodies were incubated in an equal volume of 4% MPBS. The plates are emptied, washed once in PBS, after which the blocked phages were added. Incubation was allowed to proceed for 1 hour, the plates were washed in PBS containing 0.1% Tween-20 and bound phages were detected using an anti-M13 antibody conjugated to peroxidase. As a control, the procedure was performed simultaneously using a control phage antibody directed against thyroglobulin (De Kruif et al. 1995a and 1995b), which served as a negative control.

Assay [5] has as its target T1, human OX40-receptor. Briefly: flow cytometry on tonsil mononuclear cells, M13 anti-phage APC against CD4 FITC. As to the method: Inflamed tonsils were obtained from patients undergoing routine tonsillectomy. Tonsils were minced and the MNC fraction was isolated by density centrifugation. Flow cytometric analysis of the binding of the anti-OX40-receptor phage antibodies to the OX40+ CD4+ T-cells was performed as described above. The CD4+ T-cells were distinguished from total tonsil MNC using a FITC conjugated antibody against CD4. As shown in FIGS. 3A and 3B the selected anti-human OX40-receptor phage antibodies called SC02008, SC02009, SC02010, SC02011, SC02012 and SC02021 selectively stain a subset of CD4+ T-cells within tonsil and synovial fluid mononuclear cells respectively, while they display minor staining of peripheral blood CD4+ T-cells (FIG. 3C).

B1: human IgG1 antibody 021 (antibody, V domains shown)
VH: EVQLVESGGGLVQPRGSLRLSCAASGFTFSSYAMNWVRQAPGKGLEWVAVISYDGSNKYYADSVKGRFTISRDNSKNTLYLQMNSLRAEDTAVYYCAKDRYITLPNALDYWGQGTLVTVSS
VL: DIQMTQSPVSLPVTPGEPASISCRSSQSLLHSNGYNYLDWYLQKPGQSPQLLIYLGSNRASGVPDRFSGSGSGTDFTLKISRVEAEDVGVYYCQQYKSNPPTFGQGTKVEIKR
notes: Human IgG1 made from scFv SC02021, expressed in PER.C6 cells; also called pgG102-021C01
On to B1, for which the binding result with human OX40-receptor [1] is “binds”.

B2: human IgG1 antibody 008 (antibody, V domains shown)
VH: EVQLVESGGGLVQPGGSLRLSCAASGFTFSNYTMNWVRQAPGKGLEWVSAISGSGGSTYYADSVKGRFTISRDNSKNTLYLQMNSLRAEDTAVYYCAKDRYSQVHYALDYWGQGTLVTVSS
VL: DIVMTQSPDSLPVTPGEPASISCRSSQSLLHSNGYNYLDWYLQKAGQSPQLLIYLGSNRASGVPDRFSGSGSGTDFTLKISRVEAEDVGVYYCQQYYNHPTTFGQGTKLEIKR
notes: Human IgG1 made from scFv SC02008, expressed in PER.C6 cells; also called pgG102-008C01
On to B2, for which the binding result with human OX40-receptor [1] was “binds”.

B3: phage antibody SC02022 (scFv) (scFv)
scFv: MAEVQLVESGGGLVHPGGSLRLSCAGSGFTFSSYAMHWVRQAPGKGLEWVSAIGTGGGTYYADSVQGRFTISRDNAKNSLYLQMNSLRAEDTAVYYCARYDEPLTIYWFDSWGQGTLVTVSSGGGGSGGGGSGGGGSEIELTQSPATLSLSPGERATLSCRASQSVSSYLAWYQQKPGQAPRLLIYDASNRATGIPARFSGSGSGTDFTLTISSLEPEDFAVYYCQQRSNWPPAFGGGTKVEIKRAA
notes: selected on OX40+ CD4+ T-cells
As for B3, the binding result in the assay with human OX40-receptor [2] is recorded as “binds”.

B4: phage antibody SC02023 (scFv) (scFv)
scFv: MAEVQLVESGGGLVHPGGSLRLSCAGSGFTFSSYAMHWVRQAPGKGLEWVSAIGTGGGTYYADSVMGRFTISRDNSKNTLYLQMNSLRAEDTAVYYCARYDNVMGLYWFDYWGQGTLVTVSSGGGGSGGGGSGGGGSEIELTQSPATLSLSPGERATLSCRASQSVSSYLAWYQQKPGQAPRLLIYDASNRATGIPARFSGSGSGTDFTLTISSLEPEDFAVYYCQQRSNWPPAFGGGTKVEIKRAA
notes: as for B3
Consider B4, for which, in the assay with human OX40-receptor [2], the binding result is “binds”.

B5: phage antibody SC02012 (scFv) (scFv)
scFv: MAEVQLVESGGGLVKPGGSLRLSCAASGFTFSNDSMNWMRQAPGKGLEWVANINQDGNEKYYADSVKGRFTISRDNSKNSLYLQMNSLRDEDTALYYCARARAAGTIFDYWGQGTLVTVLEGTGGSGGTGSGTGTSELDIQMTQSPSSLSASVGDRVTITCRASQNVSNYLTWYQQKPGKAGKLLIYAASSLQSGVPSRFSGSGSGTDFTLTISSLQPEDFATYYCQQSYFNPATFGQGTKLEIKRAA
Take B5: the binding result (with human OX40-receptor [3]; in assay [4]) was “binds” in each case.

B6: phage antibody SC02011 (scFv) (scFv)
scFv: MAEVQLVESGGGVVQPGRSLRLSCAASGFTFSDYTMNWVRQAPGKGLEWVSSISGGSTYYADSRKGRFTISRDNSKNTLYLQMNNLRAEDTAVYYCARDRYFRQQNAFDYWGQGTLVTVLEGTGGSGGTGSGTGTSELDIQMTQSPVTLPVTPGEPASISCRSSQSLLHSNGYNYLDWYLQKPGQSPQLLIYLGSNRASGVPDRFSGSGSGTDFTLKISRVEAEDVGVYYCQQYLTAPPTFGQGTKLEIKRAA
B6: the binding result (in the assay with human OX40-receptor [3]; in assay [4]) was “binds” throughout.

B7: human IgG1 antibody 023 (antibody, V domains shown)
VH: EVQLVESGGGLVHPGGSLRLSCAGSGFTFSSYAMHWVRQAPGKGLEWVSAIGTGGGTYYADSVMGRFTISRDNSKNTLYLQMNSLRAEDTAVYYCARYDNVMGLYWFDYWGQGTLVTVSS
VL: EIVLTQSPATLSLSPGERATLSCRASQSVSSYLAWYQQKPGQAPRLLIYDASNRATGIPARFSGSGSGTDFTLTISSLEPEDFAVYYCQQRSNWPPAFGGGTKVEIKR
notes: Human IgG1 made from scFv SC02023, expressed in PER.C6 cells; also called pgG102-023C01
Consider B7, for which the binding result with human OX40-receptor [1] is “binds”.

B8: phage antibody SC02008 (scFv) (scFv)
scFv: MAEVQLVESGGGLVQPGGSLRLSCAASGFTFSNYTMNWVRQAPGKGLEWVSAISGSGGSTYYADSVKGRFTISRDNSKNTLYLQMNSLRAEDTAVYYCAKDRYSQVHYALDYWGQGTLVTVLEGTGGSGGTGSGTGTSELDIQMTQSPDSLPVTPGEPASISCRSSQSLLHSNGYNYLDWYLQKAGQSPQLLIYLGSNRASGVPDRFSGSGSGTDFTLKISRVEAEDVGVYYCQQYYNHPTTFGQGTKLEIKRAA
notes: the phage coat protein fusion is not described
On to B8, for which the binding result (in assay [4]; in the assay with human OX40-receptor [5]) was “binds” in each case.

B9: human IgG1 antibody 011 (antibody, V domains shown)
VH: EVQLVESGGGVVQPGRSLRLSCAASGFTFSDYTMNWVRQAPGKGLEWVSSISGGSTYYADSRKGRFTISRDNSKNTLYLQMNNLRAEDTAVYYCARDRYFRQQNAFDYWGQGTLVTVSS
VL: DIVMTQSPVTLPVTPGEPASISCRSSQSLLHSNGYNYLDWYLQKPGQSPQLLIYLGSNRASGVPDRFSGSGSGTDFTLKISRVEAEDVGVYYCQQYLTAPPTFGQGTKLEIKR
notes: Human IgG1 made from scFv SC02011, expressed in PER.C6 cells; also called pgG102-011C01
Take B9: the binding result in the assay with human OX40-receptor [1] is on record as “binds”.
